Test results from publication PMC6054644.

Experiments:
[1] = biological target: rhodamine phalloidin F-actin (G-actin from Cytoskeleton, AKL99) (UniProt P68135); assay: ultrafast force-clamp spectroscopy (optical tweezers); single biotinylated myosin-5B on a streptavidin bead pedestal, single actin filament suspended between two trapped alpha-actinin beads; 25 mM MOPS pH 7.2, 25 mM KCl, 4 mM MgCl2, 1 mM EGTA, 2 uM CaM, 100 uM ATP; assistive and resistive forces 0.5-3 pN; no added Ca2+
[2] = biological target: F-actin from rabbit skeletal muscle acetone powder (rabbit) (UniProt P68135)

| k0^+ (detachment rate from actin, exponential fit extrapolated to zero force, resistive forces, 100 µM ATP) [1] | k0^− (detachment rate from actin, exponential fit extrapolated to zero force, assistive forces, 100 µM ATP) [1] | actin-activated steady-state ATPase activity (NADH-coupled assay), Kapp for F-actin at 2000 µM ATP [2] | Substance |
| --- | --- | --- | --- |
| 0.64 s⁻¹ | 2.3 s⁻¹ |  | biotinylated Avi-tag myosin-5B heavy meromyosin with bound calmodulin (from UniProt P21271 1-1095; P0DP29 1-149) (complex) |
|  |  | 1.34 µM | myosin-5B heavy meromyosin with bound calmodulin (Flag-tagged) (from UniProt P21271 1-1095; P0DP29 1-149) (complex) |
